Laboratory results as given in the supplement of paper PMC10567573.

B1: PLD5 (parent)
chain: WIVDKQHVYIGSAGLDWQSLGQMK

Variants of: B1
Assay: protein stability index of a GFP-peptide fusion (GPS, HEK-293T) (PSI 1-6); higher = more stable
Details: c terminus: a fixed tail appended
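Note: lentivirally expressed fusions sorted by FACS into six bins by GFP to DsRed ratio, PSI derived from sequencing read proportions per bin multiplied by bin number.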

Point of comparison: WIVDKQHVYVGSAGLDWQSLGQMK, protein stability index 1.92. Against it:
- WIVDKQHVYIPSAGLDWQSLGQMK — higher, 2.12
- WIVDKQHVYILSAGLDWQSLGQMK — higher, 2.88
- WIVDKQHVYIESAGLDWQSLGQMK — higher, 2.82
- WIVDKQHVYIWSAGLDWQSLGQMK — higher, 2.27
- WIVDKQHVYIHSAGLDWQSLGQMK — the same, 1.92
- WIVDKQHVYIMSAGLDWQSLGQMK — higher, 2.25
- WIVDKQHVYIISAGLDWQSLGQMK — higher, 2.71
- WIVDKQHVYIDSAGLDWQSLGQMK — lower, 1.46
- WIVDKQHVYIVSAGLDWQSLGQMK — higher, 2.02
- WIVDKQHVYIRSAGLDWQSLGQMK — higher, 2.02
- WIVDKQHVYIGSAGLDWQSNGQMK — higher, 2
- WIVDKQHVYIGSAGLDWQSIGQMK — higher, 1.97
- WIVDKQHVYIGSAGLDWQSGGQMK — higher, 2.43
- WIVDKQHVYIGSAGLDWQSWGQMK — lower, 1.85
- WIVDKQHVYIGSAGLDWQSMGQMK — higher, 2.19
- WIVDKQHVYIGSAGLDWQSDGQMK — higher, 1.96
- WIVDKQHVYIGPAGLDWQSLGQMK — lower, 1.89
- WIVDKQHVYIGQAGLDWQSLGQMK — lower, 1.6
- WIVDKQHVYIGFAGLDWQSLGQMK — higher, 3.2
- WIVDKQHVYIGMAGLDWQSLGQMK — lower, 1.31
- WIVDKQHVYIGGAGLDWQSLGQMK — lower, 1.72
- WIVDKQHVYIGKAGLDWQSLGQMK — higher, 2.07
- WIMDKQHVYIGSAGLDWQSLGQMK — lower, 1.5
- WIYDKQHVYIGSAGLDWQSLGQMK — lower, 1.56
- WIGDKQHVYIGSAGLDWQSLGQMK — higher, 2.1
- WILDKQHVYIGSAGLDWQSLGQMK — higher, 2.01
- WIPDKQHVYIGSAGLDWQSLGQMK — higher, 1.97
- WINDKQHVYIGSAGLDWQSLGQMK — higher, 2.35
- WISDKQHVYIGSAGLDWQSLGQMK — higher, 2.09
- WIWDKQHVYIGSAGLDWQSLGQMK — higher, 2.13
- WIKDKQHVYIGSAGLDWQSLGQMK — lower, 1.84
- WIEDKQHVYIGSAGLDWQSLGQMK — higher, 2.09
- WIVDKQHVYIGSAGQDWQSLGQMK — lower, 1.47
- WIVDKQHVYIGSAGEDWQSLGQMK — higher, 2.13
- WIVDKQHVYIGSAGMDWQSLGQMK — lower, 1.34
- WIVDKQHVYIGSAGWDWQSLGQMK — lower, 1.51
- WIVDKQHVYIGSAGSDWQSLGQMK — lower, 1.7
- WIVDKQHVYIGSAGVDWQSLGQMK — lower, 1.54
- WIVDKQHVYIGSAGCDWQSLGQMK — lower, 1.47
- WIVDKQHVYIGSAGADWQSLGQMK — lower, 1.8
- WDVDKQHVYIGSAGLDWQSLGQMK — higher, 2.16
- WCVDKQHVYIGSAGLDWQSLGQMK — lower, 1.83
- WHVDKQHVYIGSAGLDWQSLGQMK — lower, 1.88
- WTVDKQHVYIGSAGLDWQSLGQMK — lower, 1.46
- WVVDKQHVYIGSAGLDWQSLGQMK — lower, 1.39
- WGVDKQHVYIGSAGLDWQSLGQMK — lower, 1.87
- WNVDKQHVYIGSAGLDWQSLGQMK — lower, 1.61
- WEVDKQHVYIGSAGLDWQSLGQMK — higher, 2.18
- WIVDKQHVYIGSAGLDWQSLGQMS — higher, 3.37
- WIVDKQHVYIGSAGLDWQSLGQMD — higher, 2.02
- WIVDKQHVYIGSAGLDWQSLGQMR — lower, 1.51
- WIVDKQHVYIGSAGLDWQSLGQMI — lower, 1.79
- WIVDKQHVYIGSAGLDWQSLGQMP — higher, 2.17
- WIVDKQHVYIGSAGLDWQSLGQMW — higher, 2.97
- WIVDKQHVYIGSAGLDWQSLGQMH — higher, 2.79
- WIVDKQHVYIGSAGLDWQSLGQMA — higher, 2.37
- WIVDKQHVYIGSAGLDWQSLGQMN — higher, 2.36
- WIVDKQHVYIGSCGLDWQSLGQMK — higher, 2.08
- WIVDKQHVYIGSSGLDWQSLGQMK — higher, 2.14
- WIVDKQHVYIGSGGLDWQSLGQMK — higher, 2.05
- WIVDKQHVYIGSVGLDWQSLGQMK — higher, 3.68
- WIVDKQHVYIGSHGLDWQSLGQMK — lower, 1.45
- WIVDKQHVYIGSEGLDWQSLGQMK — lower, 1.72
- WIVDKQHVYYGSAGLDWQSLGQMK — lower, 1.73
- WIVDKQHVYAGSAGLDWQSLGQMK — lower, 1.85
- WIVDKQHVYMGSAGLDWQSLGQMK — higher, 2.11
- WIVDKQHVYNGSAGLDWQSLGQMK — higher, 2.16
- WIVDKQHVYLGSAGLDWQSLGQMK — higher, 2.41
- WIVDKQHVYDGSAGLDWQSLGQMK — higher, 2.41
- WIVDKQHVYSGSAGLDWQSLGQMK — lower, 1.73
- WIVDKQHVYTGSAGLDWQSLGQMK — lower, 1.81
- WIVDKQHWYIGSAGLDWQSLGQMK — higher, 2.43
- WIVDKQHSYIGSAGLDWQSLGQMK — lower, 1.69
- WIVDKQHFYIGSAGLDWQSLGQMK — the same, 1.92
- WIVDKQHLYIGSAGLDWQSLGQMK — higher, 1.93
- WIVDKQHCYIGSAGLDWQSLGQMK — lower, 1.58
- WIVDKQHDYIGSAGLDWQSLGQMK — lower, 1.5
- WIVDKQHEYIGSAGLDWQSLGQMK — higher, 2.01
- WIVDKQHKYIGSAGLDWQSLGQMK — lower, 1.9
- WIVDKQHGYIGSAGLDWQSLGQMK — lower, 1.35
- WIVDKQHVYIGSAGLDWQSLGQSK — lower, 1.74
- WIVDKQHVYIGSAGLDWQSLGQPK — lower, 1.85
- WIVDKQHVYIGSAGLDWQSLGQKK — lower, 1.69
- WIVDKQHVYIGSAGLDWQSLGQYK — lower, 1.84
- WIVDKQHVYIGSAGLDWQSLGQVK — lower, 1.29
- WIVDKQHVYIGSAGLDWQSLGQWK — higher, 2.19
- WIVDKQHVYIGSAGLDWQSLGQFK — lower, 1.69
- WIVDKQHVYIGSAGLDWQSLGQAK — lower, 1.55
- WIVDKQHVYIGSAGLDWQSLGQIK — higher, 2.15
- WIVDKQHVYIGSAGLDWQSLGQHK — lower, 1.32
- WIVLKQHVYIGSAGLDWQSLGQMK — lower, 1.84
- WIVRKQHVYIGSAGLDWQSLGQMK — higher, 3.94
- WIVGKQHVYIGSAGLDWQSLGQMK — lower, 1.39
- WIVKKQHVYIGSAGLDWQSLGQMK — higher, 4.58
- WIVWKQHVYIGSAGLDWQSLGQMK — higher, 1.96
- WIVPKQHVYIGSAGLDWQSLGQMK — lower, 1.13
- WIVQKQHVYIGSAGLDWQSLGQMK — lower, 1.45
- WIVVKQHVYIGSAGLDWQSLGQMK — higher, 3.83
- WIVDKQHVYIGSAGLDWQSLGRMK — lower, 1.37
- WIVDKQHVYIGSAGLDWQSLGWMK — higher, 2.11
- WIVDKQHVYIGSAGLDWQSLGPMK — higher, 2.01
- WIVDKQHVYIGSAGLDWQSLGCMK — higher, 2.35
- WIVDKQHVYIGSAGLDWQSLGVMK — lower, 1.79
- WIVDKQHVAIGSAGLDWQSLGQMK — higher, 2.33
- WIVDKQHVCIGSAGLDWQSLGQMK — lower, 1.54
- WIVDKQHVGIGSAGLDWQSLGQMK — higher, 1.96
- WIVDKQHVFIGSAGLDWQSLGQMK — higher, 3.1
- WIVDKQHVEIGSAGLDWQSLGQMK — higher, 2.13
- WIVDKQHVVIGSAGLDWQSLGQMK — higher, 1.93
- WIVDKQHVWIGSAGLDWQSLGQMK — lower, 1.75
- WIVDKQHVQIGSAGLDWQSLGQMK — higher, 2.14
- WIVDDQHVYIGSAGLDWQSLGQMK — lower, 1.42
- WIVDQQHVYIGSAGLDWQSLGQMK — lower, 1.74
- WIVDAQHVYIGSAGLDWQSLGQMK — higher, 4.17
- WIVDGQHVYIGSAGLDWQSLGQMK — lower, 1.8
- WIVDCQHVYIGSAGLDWQSLGQMK — higher, 2.29
- WIVDFQHVYIGSAGLDWQSLGQMK — higher, 4.11
- WIVDNQHVYIGSAGLDWQSLGQMK — higher, 2.12
- WIVDSQHVYIGSAGLDWQSLGQMK — lower, 1.07
- WIVDHQHVYIGSAGLDWQSLGQMK — lower, 1.55
- WIVDKTHVYIGSAGLDWQSLGQMK — lower, 1.84
- WIVDKAHVYIGSAGLDWQSLGQMK — lower, 1.51
- WIVDKEHVYIGSAGLDWQSLGQMK — higher, 1.95
- WIVDKMHVYIGSAGLDWQSLGQMK — higher, 2.63
- WIVDKPHVYIGSAGLDWQSLGQMK — lower, 1.5
- WIVDKWHVYIGSAGLDWQSLGQMK — higher, 4.19
- WIVDKRHVYIGSAGLDWQSLGQMK — higher, 2.3
- WIVDKQHVYIGSAGLDWESLGQMK — lower, 1.6
- WIVDKQHVYIGSAGLDWASLGQMK — higher, 1.95
- WIVDKQHVYIGSAGLDWMSLGQMK — higher, 3.07
- WIVDKQHVYIGSAGLDWFSLGQMK — higher, 4.52
- WIVDKQHVYIGSAGLDWTSLGQMK — higher, 2.07
- WIVDKQHVYIGSAGLDWRSLGQMK — lower, 1.47
- WIVDKQHVYIGSAGLDWVSLGQMK — higher, 2.73
- WIVDKQHVYIGSAGLDWGSLGQMK — higher, 2.4
- WIVDKQHVYIGSAGLDIQSLGQMK — lower, 1.63
- WIVDKQHVYIGSAGLDKQSLGQMK — lower, 1.72
- WIVDKQHVYIGSAGLDMQSLGQMK — lower, 1.38
- WIVDKQHVYIGSAGLDPQSLGQMK — lower, 1.64
- WIVDKQHVYIGSAGLDLQSLGQMK — lower, 1.64
- WIVDKQHVYIGSAGLDEQSLGQMK — higher, 2.1
- WIVDKQHVYIGSAGLDDQSLGQMK — higher, 1.94
- WIVDKQHVYIGSAGLDRQSLGQMK — lower, 1.9
- WIVDKQHVYIGSAGLDNQSLGQMK — higher, 2.17
- WIVDKQHVYIGSAGLDWQDLGQMK — lower, 1.9
- WIVDKQHVYIGSAGLDWQCLGQMK — higher, 2.62
- WIVDKQHVYIGSAGLDWQHLGQMK — lower, 1.81
- WIVDKQHVYIGSAGLDWQELGQMK — higher, 2.06
- WIVDKQHVYIGSAGLDWQYLGQMK — lower, 1.91
- WIVDKQHVYIGSAGLDWQPLGQMK — lower, 1.29
- WIVDKQHVYIGSAGLDWQWLGQMK — higher, 2.5
- WIVDKQHVYIGSANLDWQSLGQMK — higher, 2.15
- WIVDKQHVYIGSALLDWQSLGQMK — lower, 1.64
- WIVDKQHVYIGSATLDWQSLGQMK — lower, 1.25
- WIVDKQHVYIGSAILDWQSLGQMK — higher, 2.97
- WIVDKQHVYIGSAGLNWQSLGQMK — higher, 2.33
- WIVDKQHVYIGSAGLYWQSLGQMK — higher, 2.52
- WIVDKQHVYIGSAGLIWQSLGQMK — higher, 1.94
- WIVDKQHVYIGSAGLWWQSLGQMK — higher, 3.03
- WIVDKQHVYIGSAGLEWQSLGQMK — higher, 2.32
- WIVDKQHVYIGSAGLTWQSLGQMK — higher, 3.02
- WIVDKQHVYIGSAGLGWQSLGQMK — higher, 2.06
- WIVDKQHVYIGSAGLPWQSLGQMK — lower, 1.79
- WIVDKQHVYIGSAGLHWQSLGQMK — lower, 1.44
- WIVDKQHVYIGSAGLFWQSLGQMK — higher, 2.16
- WIVDKQHVYIGSAGLDWQSLDQMK — higher, 2
- WIVDKQHVYIGSAGLDWQSLSQMK — lower, 1.52
- WIVDKQHVYIGSAGLDWQSLYQMK — lower, 1.72
- WIVDKQHVYIGSAGLDWQSLLQMK — higher, 2.88
- WIVDKQHVYIGSAGLDWQSLCQMK — lower, 1.91
- WIVDKQHVYIGSAGLDWQSLMQMK — lower, 1.89
- WIVDKQHVYIGSAGLDWQSLWQMK — lower, 1.68
- WIVDKQHVYIGSAGLDWQSLAQMK — higher, 2.17
- WIVDKQAVYIGSAGLDWQSLGQMK — higher, 2.63
- WIVDKQTVYIGSAGLDWQSLGQMK — higher, 2.26
- WIVDKQNVYIGSAGLDWQSLGQMK — lower, 1.48
- WIVDKQYVYIGSAGLDWQSLGQMK — higher, 2.6
- WIVDKQWVYIGSAGLDWQSLGQMK — higher, 3.59
- WIVDKQCVYIGSAGLDWQSLGQMK — lower, 1.37
- WIVDKQGVYIGSAGLDWQSLGQMK — higher, 2.17
- HIVDKQHVYIGSAGLDWQSLGQMK — higher, 2.12
- RIVDKQHVYIGSAGLDWQSLGQMK — higher, 2.77
- TIVDKQHVYIGSAGLDWQSLGQMK — higher, 2.41
- VIVDKQHVYIGSAGLDWQSLGQMK — lower, 1.79
- NIVDKQHVYIGSAGLDWQSLGQMK — higher, 2.19
- SIVDKQHVYIGSAGLDWQSLGQMK — higher, 2.2
- EIVDKQHVYIGSAGLDWQSLGQMK — higher, 2.24
